Test results from patent US20220017622A1 (Pfizer, published 2022).
Where “and” joins values, the source holds several entries; their conditions need not be identical. Equal entries are not always repeated.

T1: human B7-H4 extracellular domain (human, UniProt Q7Z7D3 29-258)
T1 construct: For SPR it says only human B7-H4 ECD; also called Hu B7-H4 ECD; huB7-H4 ECD
T1 sequence: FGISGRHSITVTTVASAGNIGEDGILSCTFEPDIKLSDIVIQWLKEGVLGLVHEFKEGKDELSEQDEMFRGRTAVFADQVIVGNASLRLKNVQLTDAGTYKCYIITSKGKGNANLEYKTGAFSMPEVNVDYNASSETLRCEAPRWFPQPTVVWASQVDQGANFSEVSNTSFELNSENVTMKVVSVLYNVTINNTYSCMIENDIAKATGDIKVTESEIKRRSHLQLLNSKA


Molecular target: T1, human B7-H4 extracellular domain
Test: competition ELISA on coated huB7-H4 ECD; competitor biotinylated 0058 (by series, not given)

| Binder | IC50 |
| --- | --- |
| B7-H4 antibody 0119 (antibody, human IgG1, kappa, V domains shown) VH: EVQLLESGGGLVQPGGSLRLSCAASGFTFSSYAMSWVRQAPGKGLEWVSAISGGGGSTYYADSVKGRFTISRDNSKNTLYLQMNSLRAEDTAVYYCARDIQWFGESTLFDYWGQGTLVTVSS VL: DIQMTQSPSSLSASVGDRVTITCRASQSIRSWLAWYQQKPGKAPKLLIYKASSLEGGVPSRFSGSGSGTDFTLTISSLQPEDFATYYCQQYNSYSRTFGQGTKVEIKR | 7.52 nM and 13.7 nM |
| B7-H4 antibody 0414 (antibody, human IgG1, kappa, V domains shown) VH: EVQLLESGGGLVQPGGSLRLSCAASGFTFSSYAMSWVRQAPGKGLEWVSAISGGGGSTYYADSVKGRFTISRDNSKNTLYLQMNSLRAEDTAVYYCARDIQWFGESTLFDYWGQGTLVTVSS VL: DIQMTQSPSSLSASVGDRVTITCRASQSTRSWLAWYQQKPGKAPKLLIYKASSLEGGVPSRFSGSGSGTDFTLTISSLQPEDFATYYCQQYGSYSRTFGQGTKVEIKR | 6.57 nM and 8 nM |
| B7-H4 antibody 0562 (antibody, human IgG1, kappa, V domains shown) VH: EVQLLESGGGLVQPGGSLRLSCAASGFTFSSYAMSWVRQAPGKGLEWVSAISGGGGSTQYADSVKGRFTISRDNSKNTLYLQMNSLRAEDTAVYYCARDIQWFGESTLFDYWGQGTLVTVSS VL: DIQLTQSPSTLSASVGDRVTITCRASQSIRSWLAWFQQKPGKAPKLLIYKASSLEGGVPSRFSGSGSGTEFTLTISSLQPDDFATYYCQQYNSYSRTFGQGTKVEIKR | 2.4 nM |
| B7-H4 antibody 0563 (antibody, human IgG1, kappa, V domains shown) VH: EVQLLESGGGLVQPGGSLRLSCAASGFTFSSYAMSWVRQAPGKGLEWVSAISGGGGSTYYADSVKGRFTISRDNSKNTLYLQMNSLRAEDTAVYYCARDIQWYGESTLFDYWGQGTLVTVSS VL: DIQLTQSPSTLSASVGDRVTITCRASQSIRSWLAWFQQKPGKAPKLLIYKASSLEGGVPSRFSGSGSGTEFTLTISSLQPDDFATYYCQQYNSYSRTFGQGTKVEIKR | 2 nM |
| B7-H4 antibody 0564 (antibody, human IgG1, kappa, V domains shown) VH: EVQLLESGGGLVQPGGSLRLSCAASGFTFSSYAMSWVRQAPGKGLEWVSAISGGGGSTYYADSVKGRFTISRDNSKNTLYLQMNSLRAEDTAVYYCARDIQWHGESTLFDYWGQGTLVTVSS VL: DIQLTQSPSTLSASVGDRVTITCRASQSIRSWLAWFQQKPGKAPKLLIYKASSLEGGVPSRFSGSGSGTEFTLTISSLQPDDFATYYCQQYNSYSRTFGQGTKVEIKR | 35.2 nM |
| B7-H4 antibody 0565 (antibody, human IgG1, kappa, V domains shown) VH: EVQLLESGGGLVQPGGSLRLSCAASGFTFSSYAMSWVRQAPGKGLEWVSAISGGGGSTYYADSVKGRFTISRDNSKNTLYLQMNSLRAEDTAVYYCARDIQWFGRSTLFDYWGQGTLVTVSS VL: DIQLTQSPSTLSASVGDRVTITCRASQSIRSWLAWFQQKPGKAPKLLIYKASSLEGGVPSRFSGSGSGTEFTLTISSLQPDDFATYYCQQYNSYSRTFGQGTKVEIKR | 22.7 nM |
| B7-H4 antibody 0567 (antibody, human IgG1, kappa, V domains shown) VH: EVQLLESGGGLVQPGGSLRLSCAASGFTFSSYAMSWVRQAPGKGLEWVSAISGGGGSTYYADSVKGRFTISRDNSKNTLYLQMNSLRAEDTAVYYCARDIQWFGESTLFDYWGQGTLVTVSS VL: DIQMTQSPSSLSASVGDRVTITCRASQSTRSHLAWYQQKPGKAPKLLIYKASSLEGGVPSRFSGSGSGTDFTLTISSLQPEDFATYYCQQYGSYSRTFGQGTKVEIKR | 5.4 nM |
| B7-H4 antibody 0570 (antibody, human IgG1, kappa, V domains shown) VH: EVQLLESGGGLVQPGGSLRLSCAASGFTFSSYAMSWVRQAPGKGLEWVSAISGGGGSTYYADSVKGRFTISRDNSKNTLYLQMNSLRAEDTAVYYCARDIQWFGESTLFDYWGQGTLVTVSS VL: DIQMTQSPSSLSASVGDRVTITCRASQSTRSWLAWYQQKPGKAPKLLIYKASSLESGVPSRFSGSGSGTDFTLTISSLQPEDFATYYCQQYGSYSRTFGQGTKVEIKR | 3.1 nM |
